Data taken from article PMC3591310, “Characterization and Functional Analysis of Four Glutathione S-Transferases from the Migratory Locust, Locusta migratoria” (PLoS ONE, 2013).
Read-outs that look alike come from different tables or passages of the source.

Columns and labels:
LmGSTd1 [1] = target: T1, LmGSTd1 (Locusta migratoria, UniProt E7BTM5); assay: inhibition of CDNB-GSH conjugation, absorbance […] nm; type: biochemical; conditions: read-out: I50
T1 construct: E. coli JM109
T1 sequence (E7BTM5 1-218): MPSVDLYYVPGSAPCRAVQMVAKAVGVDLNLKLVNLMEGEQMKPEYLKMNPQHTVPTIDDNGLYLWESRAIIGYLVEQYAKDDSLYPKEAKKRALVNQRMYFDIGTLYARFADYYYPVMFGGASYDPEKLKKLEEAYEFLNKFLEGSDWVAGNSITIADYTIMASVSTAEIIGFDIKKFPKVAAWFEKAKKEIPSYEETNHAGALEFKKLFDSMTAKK

LmGSTu1 [2] = target: T2, LmGSTu1 (Locusta migratoria, UniProt F4YUI9); assay: as above; type: biochemical; conditions: read-out: I50
T2 construct: E. coli BL21 (DE3)
T2 sequence (F4YUI9 1-214): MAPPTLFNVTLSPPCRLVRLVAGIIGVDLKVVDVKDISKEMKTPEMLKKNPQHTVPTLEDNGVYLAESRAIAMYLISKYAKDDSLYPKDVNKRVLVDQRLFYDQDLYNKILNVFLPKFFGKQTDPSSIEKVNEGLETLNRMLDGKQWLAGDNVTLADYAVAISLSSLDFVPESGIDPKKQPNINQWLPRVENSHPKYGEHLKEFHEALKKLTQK

LmGSTt1 [3] = target: T3, LmGSTt1 (Locusta migratoria, UniProt F4YUJ7); assay: as above; type: biochemical; conditions: read-out: I50
T3 construct: E. coli BL21 (DE3)
T3 sequence (F4YUJ7 1-231): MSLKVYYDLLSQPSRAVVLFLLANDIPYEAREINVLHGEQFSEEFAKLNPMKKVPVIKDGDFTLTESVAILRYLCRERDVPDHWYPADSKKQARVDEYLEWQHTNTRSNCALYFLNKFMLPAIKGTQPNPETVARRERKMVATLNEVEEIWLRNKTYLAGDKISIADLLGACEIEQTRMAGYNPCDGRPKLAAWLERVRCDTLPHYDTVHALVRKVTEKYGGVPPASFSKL

LmGSTs5 [4] = target: T4, LmGSTs5 (Locusta migratoria, UniProt F4YUJ4); assay: as above; type: biochemical; conditions: read-out: I50
T4 construct: E. coli JM109
T4 sequence (F4YUJ4 1-202): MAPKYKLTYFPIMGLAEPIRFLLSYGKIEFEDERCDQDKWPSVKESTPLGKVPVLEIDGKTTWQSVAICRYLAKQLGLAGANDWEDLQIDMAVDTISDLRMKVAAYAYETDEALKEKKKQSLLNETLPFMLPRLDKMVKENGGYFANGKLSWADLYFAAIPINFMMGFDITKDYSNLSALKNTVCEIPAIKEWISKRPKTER

LmGSTt1 [5] = target: T3, LmGSTt1; assay: GSH conjugation, absorbance […] nm, non-linear regression; type: biochemical; conditions: read-out: CDNB / Km; 5 mM GSH, pH 7.5, 28°C; apparent
LmGSTd1 [6] = target: T1, LmGSTd1; assay: as above; type: biochemical; conditions: read-out: CDNB / Km; 5 mM GSH, pH 7.5, 28°C; apparent
LmGSTu1 [7] = target: T2, LmGSTu1; assay: as above; type: biochemical; conditions: read-out: CDNB / Km; 5 mM GSH, pH 7.5, 28°C; apparent
LmGSTs5 [8] = target: T4, LmGSTs5; assay: as above; type: biochemical; conditions: read-out: CDNB / Km; 5 mM GSH, pH 7.5, 28°C; apparent
purified protein [9] = substrate: O=[N+]([O-])c1ccc(Cl)c(Cl)c1; assay: purified protein; conditions: 5 mM GSH, pH 7.5, 28°C, apparent
purified protein [10] = substrate: O=[N+]([O-])c1ccc(CCl)cc1; assay: purified protein; conditions: 5 mM GSH, pH 7.5, 28°C, apparent
purified protein [11] = substrate: O=[N+]([O-])c1ccc(Cl)c(Cl)c1; assay: purified protein; type: biochemical, Locusta migratoria; conditions: 5 mM GSH, pH 7.5, 28°C, apparent
purified protein [12] = substrate: O=[N+]([O-])c1ccc(CCl)cc1; assay: purified protein; type: biochemical, Locusta migratoria; conditions: 5 mM GSH, pH 7.5, 28°C, apparent
[13] = 2 mM CDNB, 5 mM GSH, 0.1 M phosphate pH 7.5, 28°C

For reactive blue, the IC50 (LmGSTd1 [1]; [13]) was 4.58 µM, the IC50 (LmGSTu1 [2]; [13]) was 3.4 µM and the IC50 (LmGSTt1 [3]; [13]) was 12.4 µM. For the same molecule, the IC50 (LmGSTs5 [4]; [13]) was 0.98 µM.

With `C=C(CC)C(=O)c1ccc(OCC(=O)O)c(Cl)c1Cl` [ethacrynic acid] the IC50 (LmGSTd1 [1]) was 2.2 µM, the IC50 (LmGSTu1 [2]) was 3.27 µM and the IC50 (LmGSTt1 [3]) was 4.7 µM. It also gave an IC50 (LmGSTs5 [4]) of 33.8 µM.

Work on `O=[N+]([O-])c1ccc(Cl)c([N+](=O)[O-])c1` [CDNB, 1-chloro-2,4-dinitrobenzene] yielded a Km (LmGSTt1 [5]) of 4730 ± 350 µM, a Km (LmGSTd1 [6]) of 500 ± 25 µM and a Km (LmGSTu1 [7]) of 250 ± 25 µM. The Km (LmGSTs5 [8]) was 1170 ± 290 µM.

B1: LmGSTs5 (Locusta migratoria) (protein)
chain: T4 sequence (F4YUJ4 1-202)
Work on B1 yielded a Km (purified protein [9]) of 1730 ± 240 µM, a Vmax (purified protein [9]) of 0.00741 µmol/min/mg and a Km (purified protein [10]) of 470 ± 83 µM. For the same molecule, the Vmax (purified protein [10]) was 0.156 µmol/min/mg.

B2: LmGSTu1 (Locusta migratoria) (protein)
chain: T2 sequence (F4YUI9 1-214)
Molecule B2 has a Km (purified protein [9]) of 730 ± 64 µM, a Vmax (purified protein [9]) of 0.00098 µmol/min/mg and a Km (purified protein [10]) of 1580 ± 170 µM. For the same molecule, the Vmax (purified protein [10]) was 0.00677 µmol/min/mg.

B3: LmGSTd1 (Locusta migratoria) (protein)
chain: T1 sequence (E7BTM5 1-218)
notes: E. coli JM109
With B3 the Km (purified protein [11]) was 1000 ± 87 µM, the Vmax (purified protein [11]) was 0.0004 µmol/min/mg and the Km (purified protein [12]) was 6380 ± 570 µM. The Vmax (purified protein [12]) was 0.049 µmol/min/mg.

B4: LmGSTt1 (Locusta migratoria) (protein)
chain: T3 sequence (F4YUJ7 1-231)
B4 was tested, and the Km (purified protein [10]) was 7850 ± 1080 µM and the Vmax (purified protein [10]) was 0.00143 µmol/min/mg.
